Measurements reported in patent US8629107B2, “Genes and proteins associated with angiogenesis and uses thereof” (National Jewish Health, priority 2005, dated 2014).

B1: AK002276: putative transmembrane protein stably expressed in MB114 cells by retroviral transduction (protein, listed as Mus musculus)
chain: MASRESGGSRAAALLLVLGVERSLALPKICTLCPGGMHNLSRVAAYCEDTSKLMQARCCLNQKGPILGLNLQNCSLKDPGPNFLQAYTAIIIDLQANPLKDDLANTFRGFTQLQTLILPQDVPCPGGSNAWDNVTSFKDKQICQGQRDLCNSTGSPEMCPENGSCASDGPGLLQCVCADGFHGYKCMRQGSFSLLMFFGILGSTTLAISILLWGTQRRKAKAS
B2: matrillin-2: secretory protein stably expressed in MB114 cells by retroviral transduction (protein, UniProt O08746 24-956, looked up)
Matrilin-2: RERPQARFPSRGRHVRMYPQTALLESSCENKRADLVFIIDSSRSVNTYDYAKVKEFILDILQFLDIGPDVTRVGLLQYGSTVKNEFSLKTFKRKSEVERAVKRMRHLSTGTMTGLAIQYALNIAFSEAEGARPLRENVPRIIMIVTDGRPQDSVAEVAAKARNTGILIFAIGVGQVDLNTLKAIGSEPHKDHVFLVANFSQIESLTSVFQNKLCTVHMCSVLEHNCAHFCLNTPGSYICKCKQGYILSTDQKTCRIQDLCATEDHGCEQLCVNMLGSFVCQCYSGYTLAEDGKRCTAVDYCASENHGCEHECVNAESSYLCRCHEGFALNSDKKTCSKIDYCASSNHGCQHECVNAQTSALCRCLKGFMLNPDRKTCRRINYCALNKPGCEHECVNTEEGHYCRCRQGYNLDPNGKTCSRVDHCAQQDHGCEQLCLNTEESFVCQCSEGFLINDDLKTCSRADYCLLSNHGCEYSCVNTDKSFACQCPEGHVLRSDGKTCAKLDSCALGDHGCEHSCVSSEDSFVCQCFEGYILRDDGKTCRRKDVCQDVNHGCEHLCVNSGESYVCKCLEGFRLAEDGKRCRRKNVCKSTQHGCEHMCVNNGNSYLCRCSEGFVLAEDGKHCKRCTEGPIDLVFVIDGSKSLGEENFETVKHFVTGIIDSLAVSPKAARVGLLQYSTQVRTEFTLRGFSSAKEMKKAVTHMKYMGKGSMTGLALKHMFERSFTQVEGARPPSTQVPRVAIVFTDGRAQDDVSEWASKAKANGITMYAVGVGKAIEEELQEIASEPIDKHLFYAEDFSTMGEISEKLKEGICEALEDSGGRQDSAAWDLPQQAHQPTEPEPVTIKIKDLLSCSNFAVQHRFLFEEDNLSRSTQKLFHSTKSSGNPLEESQDQCKCENLILFQNVANEEVRKLTQRLEEMTQRMEALENRLKYR
B3: CRELD-2: secretory protein stably expressed in MB114 cells by retroviral transduction (protein, UniProt Q9CYA0 23-350, looked up)
Protein disulfide isomerase …: SRKPTMCQRCRTLVDKFNQGMANTARKNFGGGNTAWEEKTLSKYEFSEIRLLEIMEGLCDSSDFECNQLLEQQEEQLEAWWQTLKKEHPNLFEWFCVHTLKACCLPGTYGPDCQECQGGSERPCSGNGYCSGDGSRQGDGSCQCHTGYKGPLCIDCTDGFFSLQRNETHSICSACDESCKTCSGPSNKDCIQCEVGWARVEDACVDVDECAAETSPCSDGQYCENVNGSYTCEDCDSTCVGCTGKGPANCKECIAGYTKESGQCTDIDECSLEEKACKRKNENCYNVPGSFVCVCPEGFEETEDACVQTAEGKVTEENPTQPPSREDL
B4: ECM-1: secretory glycoprotein stably expressed in MB114 cells by retroviral transduction (protein, UniProt Q61508 20-559, looked up)
Extracellular matrix protein 1: ASEGAFKASDQREMTPERLFQHLHEVGYAAPPSPPQTRRLRVDHSVTSLHDPPLFEEQREVQPPSSPEDIPVYEEDWPTFLNPNVDKAGPAVPQEAIPLQKEQPPPQVHIEQKEIDPPAQPQEEIVQKEVKPHTLAGQLPPEPRTWNPARHCQQGRRGVWGHRLDGFPPGRPSPDNLKQICLPERQHVIYGPWNLPQTGYSHLSRQGETLNVLETGYSRCCRCRSDTNRLDCLKLVWEDAMTQFCEAEFSVKTRPHLCCRLRGEERFSCFQKEAPRPDYLLRPCPVHQNGMSSGPQLPFPPGLPTPDNVKNICLLRRFRAVPRNLPATDAIQRQLQALTRLETEFQRCCRQGHNHTCTWKAWEGTLDGYCERELAIKTHPHSCCHYPPSPARDECFAHLAPYPNYDRDILTLDLSRVTPNLMGQLCGSGRVLSKHKQIPGLIQNMTIRCCELPYPEQACCGEEEKLAFIENLCGPRRNSWKDPALCCDLSPEDKQINCFNTNYLRNVALVAGDTGNATGLGEQGPTRGTDANPAPGSKEE

How the values were obtained:
Assay type in all cases: cell-based, murine
[1] = test system: Hes1 promoter (Notch1 signaling); experiment: Hes1-driven luciferase reporter gene assay in MB114 cells; details: MB114 cells treated overnight with 10 μM
Protocol: (§1) The effect putative angiogenic agents had on MB114 cell activities were determined as follows: (i) cell proliferation using a [^3H]thymidine incorporation assay as described (Albig et al, 2006; Albig and Schiemann, 2004; Albig and Schiemann, 2005); (ii) cell invasion through Matrigel matrices using a modified Boyden-chamber assay as described (Albig et al, 2006; Albig and Schiemann, 2004; Albig and Schiemann, 2005); (iii) p38 MAPK phosphorylation using immunoblot analyses as described (Albig et al, 2006; Albig and Schiemann, 2004; Albig and Schiemann, 2005); (iv) angiogenic sprouting in rat tail collagen matrices as described (Albig et al, 2006; Albig and Schiemann, 2004); and (v) Hes1- and SBE-driven luciferase reporter gene assays as described (Albig et al, 2006; Albig and Schiemann, 2004; Albig and Schiemann, 2005).
MAGP-2 can interact physically with Notch1 and its ligand, Jagged-1 (Miyamoto et al, 2006; Nehring et al, 2005), resulting in the ectodomain shedding of both molecules from the cell surface. Notch signaling also plays an essential role in regulating normal vessel development and angiogenesis in mammals (Leong and Karsan, 2005; Shawber and Kitajewski, 2004). Given these two facts, the inventors hypothesized that MAGP-2 promotes angiogenesis by modulating Notch1 signaling. To test this hypothesis, first measured were changes in luciferase expression driven by a Hes1-luciferase reporter gene whose expression is induced by Notch1 activation (Iso et al, 2003). MB114 and HUVEC cells were transiently transfected either with pHes1-luciferase, pCMV-β-gal, and MAGP-2 cDNAs, or with pHes1-luciferase and pCMV-β-gal cDNAs and subsequently stimulated with rMAGP-2 (1 or 5 mg/ml). Afterward, luciferase and β-gal activities contained in detergent-solubilized cell extracts were measured. In addition, GFP- and MAGP-2-expressing MB114 cells were transiently transfected with pHes1-luciferase and pCMV-β-gal cDNAs, together with or without Jagged-1 cDNA as indicated. Afterward, luciferase and β-gal activities were measured as above.
To further investigate the impact of MAGP-2 on Notch1 processing and NICD accumulation, the inventors took advantage of recent findings showing that the ability of TGF-β to induce Hes1 promoter activity requires Smad3 to interact physically with NICD (Blokzijl et al, 2003), a reaction that is dispensable for canonical Smad3-mediated signaling stimulated by TGF-β (Blokzijl et al, 2003). It was therefore reasoned that the ability of MAGP-2 to inhibit NICD production in ECs would reduce the capacity of TGF-β to induce luciferase expression driven by the Hes1 promoter, but not that driven by the synthetic Smad2/3-binding element (SBE). GFP- and MAGP-2-expressing MB114 cells were transiently transfected with either pHes1- or pSBE-luciferase, both together with pCMV-β-gal as indicated in FIG. 4B. Afterward, the resulting transfectants were stimulated overnight with increasing concentrations of TGF-β1 (0-5 ng/ml).
Based on the findings described in the Examples above, the inventors hypothesized that MAGP-2 promotes angiogenesis by antagonizing Notch1 signaling. To test this hypothesis, it was first determined whether inhibiting Notch signaling in MB114 cells would enhance their angiogenic sprouting. […] Afterward, luciferase and β-gal activities were determined. […]

[2] = test system: MB114 cells; experiment: angiogenic sprouting in rat tail collagen matrices; details: 5 days; for angiogenic sprouting of quiescent MB114 cell monolayers: MB114 cells stably expressing the transgene vs GFP, 10% FBS
Protocol: as §1
Finally, it was determined whether expression of these putative angiogenic factors could effect the angiogenic sprouting of quiescent MB114 cells monolayers. MB114 cells expressing either GFP or various putative angiogenic agents were grown to confluency, and subsequently were overlaid with rat tail collagen matrices. Angiogenic sprouting by quiescent EC monolayers was stimulated by inclusion of 10% FBS and allowed to proceed for 5 days. The quantity of invading angiogenic sprouts was determined by manual counting under a light microscope.
Based on the findings described in the Examples above, the inventors hypothesized that MAGP-2 promotes angiogenesis by antagonizing Notch1 signaling. To test this hypothesis, it was first determined whether inhibiting Notch signaling in MB114 cells would enhance their angiogenic sprouting. In doing so, MB114 cells were transiently transfected with the Hes1-luciferase reporter gene (and pCMV-β-gal cDNA as control), and subsequently were treated overnight with or without the highly specific gamma-secretase inhibitor, DAPT (Sastre et al, 2001), which inhibits S3-mediated cleavage of Notch1 and, consequently, NICD-mediated induction of Hes1 expression. Afterward, luciferase and β-gal activities were determined. […] In this experiment, quiescent MB114 cell monolayers were overlaid with rat tail collagen matrices, and were induced to form angiogenic sprouts by addition of 10% FBS supplemented with or without DAPT (10 μM). Five days later the number of invading angiogenic spouts were quantified by manual counting on a light microscope. Based on these findings, the inventors conclude that Notch activation functions in mediating angiostasis in MB114 cells. […] Collectively, these findings indicate that Notch1 signaling antagonizes angiogenic sprouting in MB114 cells, and that downregulation of Notch1 signaling components is necessary for angiogenesis activation in MB114 cells.
Having shown that Notch1 signaling mediates angiostasis in MB114 cells, the inventors next asked whether MAGP-2 promotes angiogenesis in MB114 cells via its ability to antagonize Notch signaling. To do so, MAGP-2-expressing MB114 cells were engineered to constitutively express active Notch1 NICD fragment in an attempt to overcome the block of Notch processing mediated by MAGP-2. More particularly, GFP-, MAGP-2-, and MAGP-2/N1ICD-expressing MB114 cells were transiently transfected with pHes1-luciferase and pCMV-β-gal cDNAs. Luciferase and β-gal activities were determined 48 h post-transfection. As the inventors observed previously, MAGP-2 expression reduced Hes1-luciferase activity in MB114 cells (FIG. 5C), a reaction that was bypassed by co-expression of NICD in these cells (FIG. 5C). […] In this experiment, quiescent monolayers of GFP-, MAGP-2-, and MAGP-2/N1ICD-expressing MB114 cells were overlaid with rat tail collagen matrices and incubated in the absence or presence of 10% FBS for 5 days. Afterward, the number of invading angiogenic sprouts were determined by manual counting under a light microscope.

[3] = test system: MB114 cells; experiment: cell proliferation, [3H]thymidine incorporation assay; details: serum-starved MB114 cells stably expressing the transgene vs GFP; EGF 10 ng/ml, 24 h, 37° C.
Protocol: as §1
(§2) FIG. 1A show results from an experiment in which serum-starved MB114 cells, stably expressing either GFP or various putative angiogenic agents, were stimulated in the absence or presence of either bFGF (50 ng/ml) or EGF (10 ng/ml) for 24 h at 37° C. Differences in MB114 cell DNA synthesis was determined by measuring [^3H]thymidine incorporation into cellular DNA. […] In this experiment, invasion of MB114 cells expressing either GFP or various putative angiogenic agents through synthetic basement membranes was determined over 48 h using a modified Boyden-chamber assay.

[4] = test system: MB114 cells; experiment: cell invasion through Matrigel matrices, modified Boyden-chamber assay; details: MB114 cells stably expressing the transgene vs GFP; 48 h
Protocol: as §1, §2

Molecule	angiogenic sprouting of quiescent MB114 cell monolayers [2]	also measured
C[C@H](NC(=O)Cc1cc(F)cc(F)c1)C(=O)N[C@H](C(=O)OC(C)(C)C)c1ccccc1 [DAPT, reference compound]		Hes1 promoter activity (Hes1-luciferase) [1]: significantly inhibited; number of invading angiogenic sprouts ([2]; MB114 monolayers, 10% FBS with 10 μM compound vs untreated): significantly more
B1	failed to significantly affect	proliferative response of MB114 cells to EGF ([3H]thymidine incorporation into cellular DNA) [3]: significantly enhanced
B2	failed to significantly affect	
B3	failed to significantly affect	MB114 cell invasion through synthetic basement membranes [4]: significantly induced
B4	significantly decreased	
